What all share (test): EMSA
Holding throughout (settings): EMSA: DNA mix 40 mM Tris pH 7.6, 2 mM EDTA, 200 mM NaCl (printed '200 M'), 20% glycerol, 0.2 mg/ml BSA, 2 mM DTT, 20 pM duplex, mixed 1:1 with enzyme in 20 mM …
(In EMSA bound probe runs differently from free probe, usually more slowly.)

Series [1] concerns MUTYH R241Q (MBP fusion) (Homo sapiens).
In series [2] the test system is MUTYH R309C (MBP fusion) (Homo sapiens).
Series [3] concerns MUTYH V246F (MBP fusion) (Homo sapiens).
The test system of series [4] is MUTYH N238S (MBP fusion) (Homo sapiens).
The mark [5] stands for this setting: THF (abasic analog) opposite 8-oxoguanine.
Setting [6] is: upper limit estimate, THF (abasic analog) opposite 8-oxoguanine.
Setting [7] is: table unit header missing, 2'-fluoro-2'-deoxyadenosine opposite 8-oxoguanine.

One may read the Kd as the free concentration of one partner at which half of the binding sites on the other are occupied at equilibrium, for simple one-to-one binding. In the case of Duplex 2 THF:OG (product analog), 30 bp, the Kd in series [1] (setting [5]) is 467 pM; in series [2] (setting [6]), less than 10 pM; in series [3] (setting [6]) it was less than 10 pM; in series [4] (setting [5]), 46 pM.
For the substance “Duplex 2 fA:OG (substrate analog), 30 bp”, the Kd in series [1] (setting [7]) is 629 pM; in series [2] (setting [7]), 246 pM; in series [3] (setting [7]), 50 pM; in series [4] (setting [7]) it was 124 pM.

Source of the values: PMC12000561.
